From patent publication US20220324943A1 come the findings set out here.

This assay concerns the target FGF ligands. Description: cell-based or functional assay.

B1: FGFR1-CCD fusion protein (protein)
chain: RPSPTLPEQAQPWGAPVEVESFLVHPGDLLQLRCRLRDDVQSINWLRDGVQLAESNRTRITGEEVEVQDSVPADSGLYACVTSSPSGSDTTYFSVNVSDALPSSEDDDDDDDSSSEEKETDNTKPNPVAPYWTSPEKMEKKLHAVPAAKTVKFKCPSSGTPNPTLRWLKNGKEFKPDHRIGGYKVRYATGSIIMDSVVPSDKGNYTCIVENEYGSINHTYQLDVVERSPHRPILQAGLPANKTVALGSNVEFMCKVYSDPQPHIQWLKHIEVNGSKIGPDNLPYVQILKTAGVNTTDKEMEVLHLRNVSFEDAGEYTCLAGNSIGLSHHSAWLTVLEALEERPAVMLKEFMGYQGPPGPPGPPGIPGNHGNNGNNGATGHEGAKGEKGDKGDLGPRGERGQHGPKGEKGYPGIPGYCGPPGPPGPPGIPGNHGNNGNNGATGHEGAKGEKGDKGDLGPRGERGQHGPKGEKGYPGIPDYKDDDDKLQISSTVAAAHHHHHHV
As to B1, the MTT assay of HUVEC cells (cell growth / metabolic activity) is less than 50%.
